± gives the standard deviation of the averaged measurements.
System: ATP
Assay: switch fluorescence ratio, 500 uM ATP over buffer (Cy3 cluster intensity, sum of 5 cycles each) (fold (ratio)); higher = stronger signal-on switching upon ATP binding; sequences stand for … in TCGTCGGCAGCGTCAGATGTGTATAAGAGACAGTTTTTTTTTTTTTTTTTTTTTTTTT…TC
Conditions: aptamer strand: ATP DNA aptamer (quencher-CACCTGGGGGAGTATTGCGGAGGAAGG + anchor), 100 nM annealed; ATP concentration: 500 uM
Procedure, shortened: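 Switching-strand clusters labelled with Cy3 on a modified Illumina MiSeq flow-cell were annealed to 100 nM quencher-labelled ATP aptamer, imaged in selection buffer, and re-imaged after 15 min with 500 uM ATP at 22 °C. This was done over five cycles with NaOH stripping and re-annealing in between. The fluorescence ratio is summed target-cycle over summed buffer-cycle Cy3 intensity per cluster, averaged per switch-domain sequence, excluding clusters outside 100-1000 RFU.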
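Also: ATP exposure 15 min at 22 °C before imaging.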

Sequence | switch fluorescence ratio
GAATTATTGG | 0.975 ± 0.022
GAATTCAAGG | 1.01 ± 0.082
GAATTCCGTA | 1.03 ± 0.042
GAATTCGGGA | 1 ± 0.013
GAATTCTATG | 0.997 ± 0.042
GAATTCTTGA | 0.9532 ± 0.0043
GAATTGATTT | 1.009 ± 0.0065
GAATTGGGTA | 0.957 ± 0.014
GAATTGTACC | 1.03 ± 0.028
GAATTGTTAG | 0.972 ± 0.028
GAATTTAAAG | 1.007 ± 0.0018
GAATTTCGGT | 1.053 ± 0.0077
GAATTTGGGT | 0.98 ± 0.034
GAATTTTGTA | 0.984 ± 0.041
GACAAAGGAC | 1.47 ± 0.09
GACAAAGGAT | 1.04 ± 0.025
GACAACAAGG | 1.047 ± 0.0089
GACAAGGAGG | 1.02 ± 0.028
GACAAGTATT | 1.01 ± 0.013
GACAATTAGT | 1.04 ± 0.0079
GACACTAAGG | 1.01 ± 0.038
GACACTTAGG | 1.05 ± 0.017
GACACTTGTA | 1.02 ± 0.025
GACAGCGGGG | 0.999 ± 0.036
GACAGGGATC | 2.1 ± 1.6

Sequence | switch fluorescence ratio
GACAGGGGCT | 1.06 ± 0.022
GACAGGGGGG | 1.01 ± 0.085
GACAGGTGAA | 2.27 ± 0.041
GACAGGTTAG | 0.9809 ± 0.0069
GACAGGTTGA | 0.993 ± 0.036
GACAGTTAGC | 1.03 ± 0.013
GACATAAGCA | 1.03 ± 0.017
GACATAGGGT | 0.994 ± 0.025
GACATAGTGG | 1.006 ± 0.0012
GACATGAGGG | 1 ± 0.071
GACATGGGGC | 1.04 ± 0.058
GACATGGTTA | 1.02 ± 0.051
GACATTATAT | 1.028 ± 0.0025
GACATTATGC | 1.03 ± 0.014
GACATTCACT | 1.108 ± 0.0088
GACATTGTTG | 1.04 ± 0.055
GACATTTTGG | 1.03 ± 0.042
GACCAACAGT | 1.03 ± 0.021
GACCATCTGT | 1.02 ± 0.024
GACCCGGCTA | 1.04 ± 0.018
GACCGAGGGG | 0.989 ± 0.026
GACCTAGTGT | 1.03 ± 0.019
GACCTGTTTG | 0.987 ± 0.017
GACCTTTATA | 0.9914 ± 0.0062
GACGAAAAGG | 1.75 ± 1.1

Sequence | switch fluorescence ratio
GACGAAAGGC | 1.05 ± 0.02
GACGAAATTG | 0.99836 ± 0.0003
GACGAAGATC | 1.11 ± 0.016
GACGAAGCGG | 2.41 ± 0.047
GACGAGGGAT | 1.1 ± 0.034
GACGAGGGGG | 0.949 ± 0.11
GACGATGTAA | 1.18 ± 0.018
GACGCATGGT | 2.37 ± 0.15
GACGCCTAGT | 1.036 ± 0.0021
GACGCGGATG | 1.04 ± 0.02
GACGCGGCGT | 1.02 ± 0.029
GACGCGGGTC | 1.13 ± 0.026
GACGCGTCTC | 1.033 ± 0.0057
GACGCTCATG | 1.04 ± 0.033
GACGCTTCG | 0.931 ± 0.017
GACGGACAGG | 1.06 ± 0.024
GACGGACAGT | 1.13 ± 0.076
GACGGAGAGA | 1.23 ± 0.029
GACGGGATCT | 1.042 ± 0.0092
GACGGGATTG | 1.015 ± 0.006
GACGGGCACA | 1.13 ± 0.028
GACGGGGACC | 1.06 ± 0.063
GACGGGGATG | 1.03 ± 0.012
GACGGGGGTG | 1.01 ± 0.023
GACGGGGTGG | 1.01 ± 0.059

Sequence | switch fluorescence ratio
GACGGGTCTC | 1.001 ± 0.0098
GACGGTAGAG | 1.03 ± 0.02
GACGGTTTTT | 1.01 ± 0.024
GACGTAGAGC | 1.08 ± 0.026
GACGTATAG | 0.994 ± 0.022
GACGTATTTT | 0.9993 ± 0.0013
GACGTCAGAT | 0.9767 ± 0.0018
GACGTCCCAG | 0.966 ± 0.061
GACGTCTGGG | 0.986 ± 0.013
GACGTGCGAC | 1.29 ± 0.079
GACGTTAATA | 1.41 ± 0.04
GACGTTACCA | 1.61 ± 0.063
GACGTTATGG | 1.04 ± 0.016
GACGTTCTTG | 0.9862 ± 0.0027
GACGTTTCTG | 1.01 ± 0.098
GACGTTTTCC | 0.995 ± 0.097
GACGTTTTTG | 0.996 ± 0.011
GACTACGTTT | 1.02 ± 0.013
GACTAGTGAA | 0.9906 ± 0.0079
GACTAGTTGG | 0.983 ± 0.025
GACTATAGAT | 1.05 ± 0.034
GACTATGAAG | 0.99431 ± 0.00011
GACTATTGGT | 0.969 ± 0.0098
GACTCGAGGG | 0.99 ± 0.083
GACTCGATCC | 1.08 ± 0.023

Sequence | switch fluorescence ratio
GACTGCATCG | 1.03 ± 0.015
GACTGCTATA | 1.44 ± 0.043
GACTGGATGG | 0.98 ± 0.011
GACTGGCACG | 1.03 ± 0.034
GACTGGGACT | 1.08 ± 0.05
GACTGGGGGT | 0.998 ± 0.033
GACTGGGTCG | 1.06 ± 0.012
GACTGTAAGG | 0.997 ± 0.08
GACTGTGATG | 0.9708 ± 0.0097
GACTTAGGGA | 0.9949 ± 0.0013
GACTTCCATT | 1.07 ± 0.016
GACTTTATGG | 0.99 ± 0.035
GACTTTGAAT | 1.014 ± 0.0089
GACTTTTTGT | 0.994 ± 0.011
GAGAAAAACC | 1.02 ± 0.041
GAGAAAAGTG | 1.03 ± 0.086
GAGAAACATT | 1.06 ± 0.029
GAGAAAGCAG | 0.977 ± 0.025
GAGAAAGGCT | 0.97 ± 0.019
GAGAAAGGGT | 0.988 ± 0.019
GAGAAATCTT | 1.01 ± 0.03
GAGAAATGAT | 0.984 ± 0.0087
GAGAAGCACG | 0.978 ± 0.055
GAGAAGTTTG | 1.01 ± 0.018
GAGAATAGAG | 0.989 ± 0.022

Sequence | switch fluorescence ratio
GAGAATAGCG | 0.988 ± 0.028
GAGAATCACG | 0.9961 ± 0.0024
GAGAATCGGG | 0.9564 ± 0.0089
GAGACAAGGA | 0.97095 ± 8.1e-05
GAGACATGTT | 0.99 ± 0.065
GAGACCTTTT | 1.13 ± 0.17
GAGAGATGGG | 0.988 ± 0.018
GAGAGGAGGC | 1.07 ± 0.063
GAGAGGCAAA | 1.01 ± 0.018
GAGAGGGGAT | 1.03 ± 0.036
GAGAGGGGCA | 0.999 ± 0.018
GAGAGGTCGG | 1.012 ± 0.0016
GAGAGGTTGT | 1 ± 0.024
GAGAGTCTTC | 0.985 ± 0.0088
GAGAGTGCGG | 1.04 ± 0.0067
GAGAGTTGCG | 1.04 ± 0.027
GAGAGTTGGG | 0.985 ± 0.022
GAGATAAGCC | 1.03 ± 0.022
GAGATAGGTA | 0.997 ± 0.024
GAGATATGAG | 1.02 ± 0.024
GAGATATTTA | 0.9905 ± 0.0036
GAGATCGAGG | 1.03 ± 0.017
GAGATCTGCT | 0.957 ± 0.015
GAGATGGTGC | 0.99 ± 0.053
GAGATGTTAG | 0.971 ± 0.017

Sequence | switch fluorescence ratio
GAGATTGCGT | 1.01 ± 0.028
GAGATTGGTT | 1.007 ± 0.0072
GAGATTGTGA | 0.992 ± 0.039
GAGATTTAGC | 1.03 ± 0.035
GAGATTTTGT | 0.998 ± 0.036
GAGCAACGGA | 1.02 ± 0.031
GAGCAGTCGG | 0.982 ± 0.036
GAGCCTGGTT | 0.967 ± 0.035
GAGCCTTTGT | 1.002 ± 0.006
GAGCGAGGGG | 0.9836 ± 0.0074
GAGCGCTTGG | 1.01 ± 0.037
GAGCGGCGGG | 0.996 ± 0.026
GAGCGGGATG | 0.986 ± 0.031
GAGCGGTTAT | 1.33 ± 0.42
GAGCGTGACG | 1 ± 0.045
GAGCTACCCG | 1.04 ± 0.031
GAGCTACGTA | 1.04 ± 0.026
GAGCTAGAAA | 1.05 ± 0.065
GAGCTATTCT | 1.08 ± 0.0029
GAGCTCAAGT | 0.991 ± 0.062
GAGCTCACGG | 1.02 ± 0.017
GAGCTCCAGA | 1.0093 ± 0.00081
GAGCTCTTTC | 1.01 ± 0.017
GAGCTGAGCG | 0.996 ± 0.031
GAGCTGTAAC | 1.02 ± 0.053

Sequence | switch fluorescence ratio
GAGGAAAGGG | 0.989 ± 0.013
GAGGACCCAG | 1.01 ± 0.027
GAGGACGGTG | 1.03 ± 0.015
GAGGACTAGG | 1.01 ± 0.013
GAGGACTATT | 0.999 ± 0.046
GAGGAGCTAA | 1.006 ± 0.0034
GAGGATGCTC | 1.01 ± 0.015
GAGGATTGTG | 0.976 ± 0.012
GAGGATTTAG | 0.964 ± 0.013
GAGGATTTTG | 1.003 ± 0.0089
GAGGCAAGTG | 1.12 ± 0.055
GAGGCAATTT | 2.87 ± 0.68
GAGGCAGGGG | 1.04 ± 0.072
GAGGCAGTTG | 0.993 ± 0.076
GAGGCATGGA | 0.9864 ± 0.0039
GAGGCATGGG | 1.027 ± 0.0065
GAGGCCCTGA | 0.971 ± 0.035
GAGGCCGGAA | 1.07 ± 0.016
GAGGCGCAGT | 0.9988 ± 0.0024
GAGGCGGGGG | 0.988 ± 0.012
GAGGCTAATT | 1.03 ± 0.057
GAGGCTCGGA | 0.982 ± 0.029
GAGGCTGTAT | 1 ± 0.011
GAGGCTGTGC | 1.052 ± 0.0057
GAGGGAATTT | 1.01 ± 0.021

From the supplement of paper PMC10126150
